Measured values published in paper PMC12799932, “Development of a VHH that inhibits the binding of neuronal pentraxin 2 to a postsynaptic glutamate receptor, AMPAR” (The Journal of Biological Chemistry, 2025).
“And” between values parts separate entries of the source, which are not always exact repeats. Equal values may be shown once.

Tests used:
[1] = target: NP2 CC2 (construct consisting of only the CC2 region of NP2) (human) (UniProt P47972); test: mass photometry; Two^MP, 200 nM NP, 10 mM Hepes-NaOH pH 7.4, 150 mM NaCl, without CaCl2, 25 °C
[2] = target: NP2 CC2 (construct consisting of only the CC2 region of NP2) (human) (UniProt P47972); test: mass photometry; Two^MP, 200 nM NP, 10 mM Hepes-NaOH pH 7.4, 150 mM NaCl, with 3 mM CaCl2, 25 °C
[3] = target: T1, NP2 N- (neuronal pentraxin 2 in which CC1 was deleted) (human); test: mass photometry; Two^MP, 200 nM NP, 10 mM Hepes-NaOH pH 7.4, 150 mM NaCl, without CaCl2, 25 °C; settings: both partners purified
T1 chain: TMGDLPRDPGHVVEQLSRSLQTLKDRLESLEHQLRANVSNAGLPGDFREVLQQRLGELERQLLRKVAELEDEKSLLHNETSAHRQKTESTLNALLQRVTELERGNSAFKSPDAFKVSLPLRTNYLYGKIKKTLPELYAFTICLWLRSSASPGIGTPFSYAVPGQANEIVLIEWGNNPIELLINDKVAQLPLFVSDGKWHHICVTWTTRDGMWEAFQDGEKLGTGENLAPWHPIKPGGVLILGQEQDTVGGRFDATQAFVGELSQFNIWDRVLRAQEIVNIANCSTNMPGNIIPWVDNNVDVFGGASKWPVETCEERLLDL

[4] = target: T1, NP2 N- (neuronal pentraxin 2 in which …); test: mass photometry; Two^MP, 200 nM NP, 10 mM Hepes-NaOH pH 7.4, 150 mM NaCl, with 3 mM CaCl2, 25 °C; settings: both partners purified
[5] = target: NP2 C95S (full-length NP2 with cysteine 95 mutated to serine) (human) (UniProt P47972); test: mass photometry; Two^MP; equal amounts of VHH N1 and NP2 N- or NP2 C95S, 200 nM each (as monomer); 10 mM Hepes-NaOH pH 7.4, 150 mM NaCl, without CaCl2, 25 °C
[6] = target: NP2 N- (neuronal pentraxin 2 in which CC1 was deleted) (human); test: as above
[7] = target: NP2 N- (neuronal pentraxin 2 in which CC1 was deleted) (human); test: SPR; Biacore 8K; NP2 N- or NP2 PTX amine-coupled on CM5, VHH N1 analyte 5-80 nM, single-cycle kinetics; 10 mM Hepes-NaOH pH 7.4, 150 mM NaCl, 0.005% Tween-20, without CaCl2, 25 °C
[8] = target: T2, NP2 PTX (pentraxin domain of neuronal pentraxin 2) (human) (UniProt P47972); test: as above
T2 sequence: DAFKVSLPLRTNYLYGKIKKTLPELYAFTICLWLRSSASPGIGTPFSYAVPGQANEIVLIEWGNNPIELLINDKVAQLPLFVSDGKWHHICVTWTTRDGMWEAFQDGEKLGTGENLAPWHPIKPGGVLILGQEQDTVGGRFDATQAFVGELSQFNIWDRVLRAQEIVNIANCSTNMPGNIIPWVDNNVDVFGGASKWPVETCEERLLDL

[9] = target: T2, NP2 PTX (pentraxin domain of neuronal pentraxin 2) (human); test: SPR; competition; Biacore T200; GluA4 ATD (~800 RU) amine-coupled on CM5, 500 nM NP2 PTX mixed with 0-1000 nM VHH N1 as analyte; 10 mM Hepes-NaOH pH 7.4, 150 mM NaCl, 3 mM CaCl2, 0.005% Tween-20
[10] = target: T3, NP1 PTX (pentraxin domain of neuronal pentraxin 1) (human, UniProt Q15818); test: SPR; Biacore 8K; NP1 PTX or NPR PTX (~600 RU) amine-coupled on CM5, VHH N1 analyte 625-10,000 nM, multicycle kinetics; 10 mM Hepes-NaOH pH 7.4, 150 mM NaCl, 0.005% Tween-20, 3 mM CaCl2, 25 °C; settings: both partners purified
T3 construct: neuronal pentraxin 1 (NP1, Nptx1), human, pentraxin (PTX) domain; also called PTX domain of NP1; source: Expi293 cells, secreted, purified (Ni-NTA, SEC)

[11] = target: T4, NPR PTX (pentraxin domain of neuronal pentraxin receptor) (human, UniProt O95502); test: as above; settings: both partners purified
T4 construct: neuronal pentraxin receptor (NPR, Nptxr), human, pentraxin (PTX) domain; also called PTX domain of NPR; source: Expi293 cells, secreted, purified (Ni-NTA, SEC)

[12] = target: NP2 N- (neuronal pentraxin 2 in which CC1 was deleted) (human); test: SPR; Biacore 8K; NP2 N- (~800 RU) or NP2 PTX (~600 RU) amine-coupled on CM5, VHH N1 analyte 1.25-20 nM, single-cycle kinetics; 10 mM Hepes-NaOH pH 7.4, 150 mM NaCl, 0.005% Tween-20, 3 mM CaCl2, 25 °C
[13] = target: T2, NP2 PTX (pentraxin domain of neuronal pentraxin 2) (human); test: as above
[14] = target: T5, NP2 PTX D407A (human, UniProt P47972, D407A); test: SPR; Biacore 8K; NP2 PTX single alanine mutants (~800 RU) amine-coupled on CM5, VHH N1 analyte 1.25-20 nM (D407A) or 62.5-1000 nM (V412A, W419A); 10 mM Hepes-NaOH pH 7.4, 150 mM NaCl, 0.005% Tween-20, 3 mM CaCl2; settings: both partners purified
T5 construct: neuronal pentraxin 2 (NP2, Nptx2), human, pentraxin (PTX) domain with D407A; also called D407A_(NP2 PTX); source: Expi293 cells, secreted, purified (same procedure as NP2 PTX WT)

[15] = target: T6, HA-NP2 (HA-tagged mouse full-length NP2) (Mus musculus, UniProt O70340); test: immunostaining of cells or tissue; HEK293 cells expressing HA-tagged mouse NPs, fixed with 4% paraformaldehyde, permeabilized, stained with 1 μg/ml VHH N1, detected by rabbit anti-His; anti-HA as expression control; settings: one partner purified
T6 construct: source: HEK293, transfected, in fixed cells; HEK293 tSA cells, cell supernatant; not shown: HA, N-terminal, kept

[16] = target: VHH N1 (alpaca); test: ITC; iTC200; 50 μM NP2 PTX from the syringe into 5 μM VHH N1 in the cell; 10 mM Hepes-NaOH pH 7.4, 150 mM NaCl, 0 mM CaCl2, 25 °C
[17] = target: VHH N1 (alpaca); test: ITC; iTC200; 50 μM NP2 PTX from the syringe into 5 μM VHH N1 in the cell; 10 mM Hepes-NaOH pH 7.4, 150 mM NaCl, 3 mM CaCl2, 25 °C
[18] = target: T7, GluA4 ATD (amino-terminal domain of human GluA4), recombinant (human, UniProt P48058 21-402); test: SPR; Biacore T200; GluA4 ATD (~400 RU) amine-coupled on CM5, NP2 constructs as analytes (31.25-2000 nM NP2 N- and NP2 PTX, 62.5-4000 nM NP2 CC2); 10 mM Hepes-NaOH pH 7.4, 150 mM NaCl, 0.005% Tween-20, with 3 mM CaCl2; settings: both partners purified
T7 construct: AMPA-type glutamate receptor subunit GluA4, human, amino-terminal domain (ATD); source: Expi293 cells, secreted, purified (Ni-NTA, SEC)
T7 sequence (looked up): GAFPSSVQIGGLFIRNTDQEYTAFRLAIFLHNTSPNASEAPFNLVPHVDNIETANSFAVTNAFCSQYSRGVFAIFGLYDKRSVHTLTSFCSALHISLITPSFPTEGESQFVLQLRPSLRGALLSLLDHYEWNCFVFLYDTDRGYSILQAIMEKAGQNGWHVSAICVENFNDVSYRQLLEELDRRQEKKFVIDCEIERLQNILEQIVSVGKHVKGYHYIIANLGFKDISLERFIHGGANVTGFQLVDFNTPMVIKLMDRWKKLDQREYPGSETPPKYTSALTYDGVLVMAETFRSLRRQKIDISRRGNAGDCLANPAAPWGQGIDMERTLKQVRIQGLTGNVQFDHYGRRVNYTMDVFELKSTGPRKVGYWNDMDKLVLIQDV

T3 sequence (Q15818 226-428): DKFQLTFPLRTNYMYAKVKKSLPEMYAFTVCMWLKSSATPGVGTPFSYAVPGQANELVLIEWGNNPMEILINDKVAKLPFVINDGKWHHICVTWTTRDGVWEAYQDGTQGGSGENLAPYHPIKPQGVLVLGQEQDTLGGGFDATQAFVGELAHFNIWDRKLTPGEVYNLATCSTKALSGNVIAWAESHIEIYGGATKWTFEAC
T4 sequence (O95502 292-494): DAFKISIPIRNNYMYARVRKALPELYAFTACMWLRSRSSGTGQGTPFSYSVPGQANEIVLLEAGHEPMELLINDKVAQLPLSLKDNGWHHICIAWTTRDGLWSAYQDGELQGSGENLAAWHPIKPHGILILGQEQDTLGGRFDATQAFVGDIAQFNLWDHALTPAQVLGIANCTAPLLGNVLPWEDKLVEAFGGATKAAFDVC

## NP2 CC2 (construct consisting of only the CC2 region of NP2) (from UniProt P47972 16-431) (domain or fragment)
[1]
  stoichiometry N: > 3
[2]
  stoichiometry N: > 3

B1: NP2 N- (neuronal pentraxin 2 in which CC1 was deleted) (domain or fragment)
chain: TMGDLPRDPGHVVEQLSRSLQTLKDRLESLEHQLRANVSNAGLPGDFREVLQQRLGELERQLLRKVAELEDEKSLLHNETSAHRQKTESTLNALLQRVTELERGNSAFKSPDAFKVSLPLRTNYLYGKIKKTLPELYAFTICLWLRSSASPGIGTPFSYAVPGQANEIVLIEWGNNPIELLINDKVAQLPLFVSDGKWHHICVTWTTRDGMWEAFQDGEKLGTGENLAPWHPIKPGGVLILGQEQDTVGGRFDATQAFVGELSQFNIWDRVLRAQEIVNIANCSTNMPGNIIPWVDNNVDVFGGASKWPVETCEERLLDL
modifications: Exact start is not in the text (Figures 1B and S1); it is set by convention just after CC1 and its Cys95, keeping CC2, PTX and the native C-terminus. Human is inferred from the D407/V412/W419 …
[3]
  stoichiometry N: 6 and 3
[4]
  stoichiometry N: 9 and 12

B2: VHH N1 (VHH)
VHH: QLQLVESGGGLVQAGDSLKLSCIDSGSTFNLYAMGWFRQAPGKEREFVASISRGGGSSYYADSQLKGRFTISRDNAKNTVYLQMNSLKPEDTAVYYCNARAGRYDYWGQGTQVTVSS
notes: selected by phage display from an immune library of an alpaca immunized with NP2 N-; Cloned into the pRA2 vector with a C-terminal His-tag; detected by anti-His in the cell staining; also called N1 VHH; VHH for NP2; source: E. coli BL21 (DE3), purified (Ni-NTA, SEC); not shown: His-tag, C-terminal, kept
[5]
  stoichiometry N: 1
[6]
  stoichiometry N: 1
[7]
  Kd: 33.5 nM
  koff: 0.00514 s⁻¹
  kon: 156000 M⁻¹ s⁻¹
[8]
  Kd: 11.6 nM
  koff: 0.0249 s⁻¹
  kon: 2.21e+06 M⁻¹ s⁻¹
[9]
  IC50: 216 nM
[10]
  binding result: no binding (tested: 10,000 nM)
[11]
  binding result: no binding (tested: 10,000 nM)
[12]
  Kd: 1.41 nM
  koff: 0.00524 s⁻¹
  kon: 3.7e+06 M⁻¹ s⁻¹
[13]
  Kd: 1.14 nM
  koff: 0.00208 s⁻¹
  kon: 1.92e+06 M⁻¹ s⁻¹
[14]
  fold change of affinity against NP2 PTX WT: 3 times lower
[15]
  binding result: binds

B3: NP2 PTX (pentraxin domain of neuronal pentraxin 2) (domain or fragment, human)
chain: DAFKVSLPLRTNYLYGKIKKTLPELYAFTICLWLRSSASPGIGTPFSYAVPGQANEIVLIEWGNNPIELLINDKVAQLPLFVSDGKWHHICVTWTTRDGMWEAFQDGEKLGTGENLAPWHPIKPGGVLILGQEQDTVGGRFDATQAFVGELSQFNIWDRVLRAQEIVNIANCSTNMPGNIIPWVDNNVDVFGGASKWPVETCEERLLDL
notes: neuronal pentraxin 2 (NP2, Nptx2), human, pentraxin (PTX) domain; also called NP2 PTX WT; PTX domain of NP2; source: Expi293 cells, secreted, purified (Ni-NTA, SEC)
[16]
  Kd: 57.5 nM
  dH: -7.53 kcal/mol
  stoichiometry N: 0.781
[17]
  Kd: 19.7 nM
  dH: -7.36 kcal/mol
  stoichiometry N: 0.913
[18]
  Kd: 13600 nM
